Test results reported in US11046988B2, “Process for the modification of a glycoprotein using a β-(1,4)-N-acetylgalactosaminyl transferase or a mutant thereof” (Synaffix B.V., priority 2014, dated 2021).

Test system: GlcNAc2-Man3-GlcNAc-GlcNAc(Fuc)-substituted trastuzumab (formula 27)
Assay: Glycosyltransfer of GalNAz to galactosidase-trimmed trastuzumab, MS analysis
Type: biochemical
Conditions: UDP-GalNAz 0.5 mM, CeGalNAcT 0.1 mg/mL, 10 mM MnCl2, pH 8.0, 16 hours, 22° C.
Description: Trastuzumab (10 mg/mL) in 50 mM sodium phosphate pH 6.0 and β(1,4)-galactosidase (3 mU/mg IgG) from Streptococcus pneumoniae (commercially available from Calbiochem) was stirred for 16 hrs at 37° C. prior to analysis by MS. A single major heavy chain product was observed corresponding to trastuzumab with a GlcNAc2-Man3-GlcNAc-GlcNAc(Fuc)-substituted heavy chain (c=d=0, 50592 Da).
A solution of 50 μg (modified) IgG, 1 M Tris-HCl pH 8.0, 1 mM EDTA and 30 mM DTT with a total volume of approximately 70 μL was incubated for 20 minutes at 37° C. to reduce the disulfide bridges allowing to analyze both light and heavy chain. If present, azide-functionalities are reduced to amines under these conditions. Reduced samples were washed trice with milliQ using an Amicon Ultra-0.5, Ultracel-10 Membrane (Millipore) and concentrated to 10 μM (modified) IgG. The reduced IgG was analyzed by electrospray ionization time-of-flight (ESI-TOF) on a JEOL AccuTOF. Deconvoluted spectra were obtained using Magtran software.
Trastuzumab obtained after trimming with galactosidase (as in Formula 27, preparation described in Example 24) was subjected to the glycosyltransfer protocol with UDP-GalNAz and GalNAcT.

## CeGalNAcT: truncated Caenorhabditis elegans β-(1,4)-GalNAcT, amino acids 30-383 of SEQ ID NO: 2 (SEQ ID NO: 6)
  conversion into (GalNAz-GlcNAc)2-Man3-GlcNAc-GlcNAc(Fuc)-substituted trastuzumab: complete conversion
  major heavy chain product ((GalNAz-GlcNAc)2-Man3-GlcNAc-GlcNAc(Fuc)-substituted): ~90 % of the total heavy chain products
